Experimental data: the supplement of paper PMC7125110
± gives the standard error. For some of these results: Fewer inactive variants are shown than the library holds.

B1: glmS ribozyme (parent)
chain: AUAAAAGCGCCAGAACUACAGAAAUGUAGUUGACGAGGAGGAGGUUUAUCGAAUUUUCGGCGGAUGCCUCCAAA

Columns and labels:
Conditions in all cases: with glucosamine-6-phosphate
[1] = variants of: B1; assay: KM; higher = weaker cofactor use; RNA array
Outline: (§1)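 In situ transcription by E. coli RNA polymerase produced barcoded ribozyme variants on sequenced MiSeq chips, and a hybridised Cy3 probe tracked them at 37 °C. Glucosamine-6-phosphate was flowed in at 40 μM to 10 mM in HEPES/KCl/Mg(OAc)2 buffer. kcat and KM were taken from weighted Michaelis–Menten fits of kobs values from exponential decay fits.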

[2] = variants of: B1; assay: kcat; higher = faster cleavage; RNA array
Outline: as §1

[3] = variants of: B1; assay: self-cleavage kobs at 160 uM GlcN6P; higher = faster cleavage; RNA array
Outline: as §1

[4] = variants of: B1; assay: self-cleavage kobs at 640 uM GlcN6P; higher = faster cleavage; RNA array
Outline: as §1

[5] = variants of: B1; assay: self-cleavage kobs at 2500 uM GlcN6P; higher = faster cleavage; RNA array
Outline: as §1

[6] = variants of: B1; assay: self-cleavage kobs at 10000 uM GlcN6P; higher = faster cleavage; RNA array
Outline: as §1

[7] = variants of: B1; assay: self-cleavage kobs at 40 uM GlcN6P; higher = faster cleavage; RNA array
Outline: as §1

| Variant | KM [1] | kcat [2] | self-cleavage kobs at 160 uM GlcN6P [3] | self-cleavage kobs at 640 uM GlcN6P [4] | self-cleavage kobs at 2500 uM GlcN6P [5] | self-cleavage kobs at 10000 uM GlcN6P [6] | self-cleavage kobs at 40 uM GlcN6P [7] |
| --- | --- | --- | --- | --- | --- | --- | --- |
| C11U C50U | 98.2 ± 43 µM | – | – | – | – | – | – |
| G66C C70A | – | 8.82e-05 ± 1.9e-05 s⁻¹ | 8.3e-05 ± 3e-05 s⁻¹ | 4.17e-05 ± 1.3e-05 s⁻¹ | 6.82e-05 ± 1.2e-05 s⁻¹ | 9e-05 ± 1.4e-05 s⁻¹ | – |
| U31G G51C | 210 ± 61 µM | – | – | – | – | – | – |
| U65C U69G | – | 4.17e-05 ± 1.1e-05 s⁻¹ | – | – | 5.5e-05 ± 2.3e-05 s⁻¹ | – | – |
| A6C G13A A52C | – | – | – | – | < 1e-05 s⁻¹ | < 1e-05 s⁻¹ | < 1e-05 s⁻¹ |
| A6G C58G C61U | – | – | – | – | – | < 1e-05 s⁻¹ | < 1e-05 s⁻¹ |
| A6G G51U U65A | – | – | – | – | – | < 1e-05 s⁻¹ | < 1e-05 s⁻¹ |
| A6C G29U G32A U45A G60A | – | – | – | – | < 1e-05 s⁻¹ | – | < 1e-05 s⁻¹ |
| G40A G44C | 2680 ± 1100 µM | – | – | – | – | – | – |
| G66A C68G | – | 6.98e-05 ± 9.4e-06 s⁻¹ | 3.51e-05 ± 1.2e-05 s⁻¹ | 5.08e-05 ± 7.5e-06 s⁻¹ | 4.73e-05 ± 1e-05 s⁻¹ | 7.85e-05 ± 7.5e-06 s⁻¹ | – |
| A6G U54G U57C | – | – | – | – | – | < 1e-05 s⁻¹ | < 1e-05 s⁻¹ |
| A6G G60A | – | – | < 1e-05 s⁻¹ | < 1e-05 s⁻¹ | < 1e-05 s⁻¹ | < 1e-05 s⁻¹ | < 1e-05 s⁻¹ |
| C67G C71U | – | 2.93e-05 ± 3.2e-06 s⁻¹ | – | – | 3.07e-05 ± 8.1e-06 s⁻¹ | 2.63e-05 ± 6.7e-06 s⁻¹ | – |
| A6C C50A | – | – | – | – | – | < 1e-05 s⁻¹ | < 1e-05 s⁻¹ |
| A6G G9A G38A G41A U57A | – | – | < 1e-05 s⁻¹ | < 1e-05 s⁻¹ | < 1e-05 s⁻¹ | – | < 1e-05 s⁻¹ |
| A6G C8G C10G A52U G60A | – | – | – | – | – | – | < 1e-05 s⁻¹ |
| C67U U69G | – | 3.43e-05 ± 1.5e-05 s⁻¹ | 4.85e-05 ± 1.1e-05 s⁻¹ | – | 4.75e-05 ± 1.2e-05 s⁻¹ | – | – |
| C67U U69C | – | 0.000129 ± 6e-05 s⁻¹ | 4.3e-05 ± 2.1e-05 s⁻¹ | 0.000113 ± 2e-05 s⁻¹ | 4.99e-05 ± 2.3e-05 s⁻¹ | 0.000226 ± 3.7e-05 s⁻¹ | – |
| A6C G60A | – | – | – | < 1e-05 s⁻¹ | < 1e-05 s⁻¹ | – | < 1e-05 s⁻¹ |
| A6U A12U G43A U47G | – | – | – | – | – | – | < 1e-05 s⁻¹ |
| A6G U31C U55G | – | – | – | – | 4.23e-05 ± 1.7e-05 s⁻¹ | 5.16e-05 ± 1.9e-05 s⁻¹ | < 1e-05 s⁻¹ |
| C10U C50G | 51.5 ± 26 µM | – | 9.85e-05 ± 1.3e-05 s⁻¹ | 0.000136 ± 1.7e-05 s⁻¹ | 0.00051 ± 0.0002 s⁻¹ | 0.000116 ± 3e-05 s⁻¹ | 6.14e-05 ± 1e-05 s⁻¹ |
| U65G C70A | 825 ± 210 µM | 0.000185 ± 1.6e-05 s⁻¹ | – | 7.93e-05 ± 1.6e-05 s⁻¹ | 0.000183 ± 6.7e-05 s⁻¹ | 0.000167 ± 2.7e-05 s⁻¹ | – |
